Data from US20210113690A1 (BERLIN CHEMIE, published 2021).

Columns and labels:
Assay in all cases: peptide microarray, 8mer on the chip, 1 µg/mL LY75_A1, anti-human IgG Alexa 647
YDDREFIY = target: T1, YDDREFIY
T1 construct: LY75 8mer on the microarray; aa 769-776 counted from Region 3 (aa761-780)
T1 peptide: YDDREFIY
Experimental: (§1) The peptide microarray analysis was performed by LC Sciences, Houston Tex., in brief the method comprised the following steps: —Contiguous 8mer peptides of LY75 protein having […] spanning residues 216 to 1666 of the full length LY75 protein were synthesized and immobilized on a microarray chip. The chip comprised three panels such that the experiment was performed in triplicate. […] The binding assay was performed under the following conditions:—
(§2) The microarray comprising the contiguous peptides in triplicate was washed with 1 mL of binding buffer at 4° C. for 20 min. […] The array was again washed with 0.5 mL of washing buffer at 4° C. for 30 min then incubated with 25 ng/mL anti-human IgG Alexa 647 conjugate in binding buffer (pH 7.0) at 4° C. for 1 hr. The array was again washed with 0.5 mL of washing buffer at 4° C. for 30 min.

YFHQHSIL = target: T2, YFHQHSIL
T2 construct: LY75 8mer on the microarray
T2 peptide: YFHQHSIL
Experimental: as §1, §2

EAVYFHQH = target: T3, EAVYFHQH
T3 construct: LY75 8mer on the microarray
T3 peptide: EAVYFHQH
Experimental: as §1, §2

TYSNFHPL = target: T4, TYSNFHPL
T4 construct: LY75 8mer on the microarray
T4 peptide: TYSNFHPL
Experimental: as §1, §2

EVKDCRSF = target: T5, EVKDCRSF
T5 construct: LY75 8mer on the microarray
T5 peptide: EVKDCRSF
Experimental: as §1, §2

SRWIQYKG = target: T6, SRWIQYKG
T6 construct: LY75 8mer on the microarray
T6 peptide: SRWIQYKG
Experimental: as §1, §2

LSCYKVFH = target: T7, LSCYKVFH
T7 construct: LY75 8mer on the microarray
T7 peptide: LSCYKVFH
Experimental: as §1, §2

EFIYLRPF = target: T8, EFIYLRPF
T8 construct: LY75 8mer on the microarray; aa 773-780 counted from Region 3 (aa761-780)
T8 peptide: EFIYLRPF
Experimental: as §1, §2

YPWHRFPV = target: T9, YPWHRFPV
T9 construct: LY75 8mer on the microarray
T9 peptide: YPWHRFPV
Experimental: as §1, §2

RELTYSNF = target: T10, RELTYSNF
T10 construct: LY75 8mer on the microarray
T10 peptide: RELTYSNF
Experimental: as §1, §2

SCSERHFV = target: T11, SCSERHFV
T11 construct: LY75 8mer on the microarray
T11 peptide: SCSERHFV
Experimental: as §1, §2

VKYLNNLY = target: T12, VKYLNNLY
T12 construct: LY75 8mer on the microarray
T12 peptide: VKYLNNLY
Experimental: as §1, §2

SCYKVFHA = target: T13, SCYKVFHA
T13 construct: LY75 8mer on the microarray
T13 peptide: SCYKVFHA
Experimental: as §1, §2

KKLSRLTY = target: T14, KKLSRLTY
T14 construct: LY75 8mer on the microarray
T14 peptide: KKLSRLTY
Experimental: as §1, §2

LSRLTYSS = target: T15, LSRLTYSS
T15 construct: LY75 8mer on the microarray
T15 peptide: LSRLTYSS
Experimental: as §1, §2

LTYSNFHP = target: T16, LTYSNFHP
T16 construct: LY75 8mer on the microarray
T16 peptide: LTYSNFHP
Experimental: as §1, §2

AVYFHQHS = target: T17, AVYFHQHS
T17 construct: LY75 8mer on the microarray
T17 peptide: AVYFHQHS
Experimental: as §1, §2

VSLCQKYS = target: T18, VSLCQKYS
T18 construct: LY75 8mer on the microarray
T18 peptide: VSLCQKYS
Experimental: as §1, §2

DHFTYSRY = target: T19, DHFTYSRY
T19 construct: LY75 8mer on the microarray
T19 peptide: DHFTYSRY
Experimental: as §1, §2

SLSCYKVF = target: T20, SLSCYKVF
T20 construct: LY75 8mer on the microarray
T20 peptide: SLSCYKVF
Experimental: as §1, §2

WHRFPVTF = target: T21, WHRFPVTF
T21 construct: LY75 8mer on the microarray
T21 peptide: WHRFPVTF
Experimental: as §1, §2

DDHFTYSR = target: T22, DDHFTYSR
T22 construct: LY75 8mer on the microarray
T22 peptide: DDHFTYSR
Experimental: as §1, §2

KLSRLTYS = target: T23, KLSRLTYS
T23 construct: LY75 8mer on the microarray
T23 peptide: KLSRLTYS
Experimental: as §1, §2

GWHFYDDR (765-772) = target: T24, GWHFYDDR (765-772) (human)
T24 construct: Tryptic peptide of recombinant LY75, found by LC-MS/MS after pull down
T24 peptide: GWHFYDDR
Experimental: as §1, §2

RYPWHRFP = target: T25, RYPWHRFP
T25 construct: LY75 8mer on the microarray
T25 peptide: RYPWHRFP
Experimental: as §1, §2

HFTYSRYP = target: T26, HFTYSRYP
T26 construct: LY75 8mer on the microarray
T26 peptide: HFTYSRYP
Experimental: as §1, §2

Measured: binding result

B1: LY75_A1 monoclonal antibody (antibody, human IgG1, kappa, V domains shown)
VH: EVQLVESGGGLVKPGGSLRLSCAASGFTYSNAWMSWVRQAPGKGLEWVGRIKSKTDGGTTDYAAPVQGRFTISRDDSKNTLYLQMNSLKTEDTAVYYCTIFGVVSFDYWGQGTLVTVSS
VL: DVQMTQSPSSLSASVGDRVTITCRASQSISDYLSWYQQRPGKAPNLLIYAASNLKTGVPSRFSGSGSGTDFTLTISTLQPEDFATYYCQQSYRSPWTFGQGTKVEIKR
notes: also called LY75A1 antibody; antibody LY75_A1
binds: all assays above
